Where two headings read alike, the source gives them in different places.
How the values were obtained:
Assay in all cases: SAXS
HUαβ [1] = biological target: T1, HUαβ (Escherichia coli, UniProt P0ACF0;P0ACF4 1-90;1-90)
HUαα [2] = biological target: T2, HUαα (Escherichia coli, UniProt P0ACF0 1-90)
HUαα P63E = HUαα P63E (Escherichia coli, UniProt P0ACF0 1-90, P63E)
HUαα [3] = biological target: T2, HUαα; remark: listed apart in the source
HUαα G82E = HUαα G82E (Escherichia coli, UniProt P0ACF0 1-90, G82E)
HUα38α38 = HUα38α38 (Escherichia coli, UniProt P0ACF0 1-90, E38K;V42L)
HUαα V45E = HUαα V45E (Escherichia coli, UniProt P0ACF0 1-90, V45E)
HUαβ [4] = biological target: T1, HUαβ; remark: listed apart in the source

Measured: binding result

B1: 20-bp DNA (dsDNA)
DNA 1: GTTCAATTGTTGTTAACTTG
DNA 2: CAAGTTAACAACAATTGAAC
binds: HUαβ [1] | HUαα [2]

B2: 80-bp DNA (dsDNA)
DNA 1: AATGAGGTAACAACGAAAGCAGATGATAGCTGCTTATCAATTTGTTGCAAACAAGTAGCCGCGCCCAATGAGGTAACAAT
DNA 2: ATTGTTACCTCATTGGGCGCGGCTACTTGTTTGCAACAAATTGATAAGCAGCTATCATCTGCTTTCGTTGTTACCTCATT
not listed: HUαβ [1] | HUαα [2]
binds: all other assays above
